Data from patent US8551717B2, “Method for determining sumoylation” (Medizinische Hochschule Hannover, priority 2008, dated 2013).
Blank lines part the entries; values can stand above or below the molecule they belong to.

Legend:
[1] = target: T1, p53-U (Homo sapiens, UniProt P04637+P63279); assay: Trans-SUMOylation by p53-U; format: cell-based; conditions: western blot
T1 construct: expressed in transfected cells; host or cells: HEK293

[2] = target: T2, U-CDC37 (Homo sapiens, UniProt P63279+Q16543); assay: Trans-SUMOylation by U-CDC37; format: cell-based; set-up: key: (++), strong TransSUMOylation; (+), TransSUMOylation; (+/−) weak TransSUMOylation; (−) no detectable TransSUMOylation; conditions: protein 2 construct coexpressed with U-CDC37 and EGFP-SUMO1 in HEK293; western blot; Table 1
T2 construct: expressed in transfected cells; host or cells: HEK293
T2 sequence (P63279+Q16543 fused): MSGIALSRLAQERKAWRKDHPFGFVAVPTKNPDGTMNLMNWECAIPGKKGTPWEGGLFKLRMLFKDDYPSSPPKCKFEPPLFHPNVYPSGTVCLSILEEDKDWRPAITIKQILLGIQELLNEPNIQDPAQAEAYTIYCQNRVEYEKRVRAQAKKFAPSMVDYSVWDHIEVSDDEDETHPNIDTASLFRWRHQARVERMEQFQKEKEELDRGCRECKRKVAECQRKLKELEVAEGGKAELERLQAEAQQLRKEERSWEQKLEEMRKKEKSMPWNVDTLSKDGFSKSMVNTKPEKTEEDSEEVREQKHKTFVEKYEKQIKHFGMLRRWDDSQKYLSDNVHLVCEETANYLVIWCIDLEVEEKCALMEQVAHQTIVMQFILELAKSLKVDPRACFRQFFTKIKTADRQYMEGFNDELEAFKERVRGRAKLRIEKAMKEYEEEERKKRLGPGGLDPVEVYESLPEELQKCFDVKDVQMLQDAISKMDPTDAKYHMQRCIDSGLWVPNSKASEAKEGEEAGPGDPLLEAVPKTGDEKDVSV
Description: (§1) To identify new SUMOylation substrates and to study the function of SUMOylation the Ubc9/substrate dimerisation-dependent SUMOylation system (USDDS) was developed which consists of fusions of the SUMOylation substrate and of the SUMO-conjugating enzyme Ubc9 to the chemically activatable heterodimerisation domains FKBP and FRB, respectively, as shown in FIG. 2. When the substrate protein fused to FKBP is coexpressed with Ubc9-FRB, treatment of HEK293 cells with the rapamycin-related dimerizer AP21967 induces SUMOylation of the substrate protein fused to FKBP at its specific SUMOylation site. […] Dependent on an EcoRl site in the coding sequence, seven C-terminal amino acids of the human STAT1a in the STAT1-FKBP/FRB fusion proteins are missing. For the SUMOylation analysis HEK293 (human embryonic kidney cells) cells have been used. HEK293 cells were cultured in Dulbecco's modified Eagle's medium with high glucose, complemented with 10% fetal calf serum, 2 mM L-glutamine, 100 U/ml penicillin and […] streptomycin. […]
(§2) As shown above, the SUMOylation of a protein of interest can be induced by the heterodimerisation with a binding protein fused to Ubc9. […] Therefore the protein pairs were coexpressed with EGFP-SUMO1 in HEK293 cells and after 24h the transfectants were lysed and the protein extracts were analyzed in western blots. […]

[3] = target: T3, U-MK5 (Homo sapiens, UniProt P63279+Q8IW41); assay: Trans-SUMOylation by U-MK5; format: cell-based; set-up: key: (++), strong TransSUMOylation; (+), TransSUMOylation; (+/−) weak TransSUMOylation; (−) no detectable TransSUMOylation; conditions: protein 2 construct coexpressed with U-MK5 and EGFP-SUMO1 in HEK293; western blot; Table 2
T3 construct: expressed in transfected cells; host or cells: HEK293
T3 sequence (P63279+Q8IW41 fused): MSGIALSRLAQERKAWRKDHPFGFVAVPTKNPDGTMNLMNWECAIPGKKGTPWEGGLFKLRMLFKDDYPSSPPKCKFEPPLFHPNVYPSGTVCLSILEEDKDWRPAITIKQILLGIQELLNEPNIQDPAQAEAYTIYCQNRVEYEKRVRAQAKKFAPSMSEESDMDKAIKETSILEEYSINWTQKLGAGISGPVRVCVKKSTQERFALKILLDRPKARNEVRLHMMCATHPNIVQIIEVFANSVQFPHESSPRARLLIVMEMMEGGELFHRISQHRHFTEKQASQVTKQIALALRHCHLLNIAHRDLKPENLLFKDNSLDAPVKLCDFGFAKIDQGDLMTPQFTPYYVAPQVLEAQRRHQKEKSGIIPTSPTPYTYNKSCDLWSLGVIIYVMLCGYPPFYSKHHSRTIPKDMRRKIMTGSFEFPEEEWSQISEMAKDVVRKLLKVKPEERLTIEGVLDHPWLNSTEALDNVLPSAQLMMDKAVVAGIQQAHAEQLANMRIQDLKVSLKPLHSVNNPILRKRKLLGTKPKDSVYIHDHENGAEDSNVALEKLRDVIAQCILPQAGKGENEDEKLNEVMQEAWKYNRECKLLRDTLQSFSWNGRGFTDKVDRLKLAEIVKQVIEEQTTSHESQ
Description: as §1, §2

[4] = target: T4, MK2-U (Homo sapiens, UniProt P49137+P63279); assay: Trans-SUMOylation by MK2-U; format: cell-based; conditions: protein 2 construct coexpressed with MK2-U and EGFP-SUMO1 in HEK293; western blot; Table 2
T4 construct: expressed in transfected cells; host or cells: HEK293
T4 sequence (P49137+P63279 fused): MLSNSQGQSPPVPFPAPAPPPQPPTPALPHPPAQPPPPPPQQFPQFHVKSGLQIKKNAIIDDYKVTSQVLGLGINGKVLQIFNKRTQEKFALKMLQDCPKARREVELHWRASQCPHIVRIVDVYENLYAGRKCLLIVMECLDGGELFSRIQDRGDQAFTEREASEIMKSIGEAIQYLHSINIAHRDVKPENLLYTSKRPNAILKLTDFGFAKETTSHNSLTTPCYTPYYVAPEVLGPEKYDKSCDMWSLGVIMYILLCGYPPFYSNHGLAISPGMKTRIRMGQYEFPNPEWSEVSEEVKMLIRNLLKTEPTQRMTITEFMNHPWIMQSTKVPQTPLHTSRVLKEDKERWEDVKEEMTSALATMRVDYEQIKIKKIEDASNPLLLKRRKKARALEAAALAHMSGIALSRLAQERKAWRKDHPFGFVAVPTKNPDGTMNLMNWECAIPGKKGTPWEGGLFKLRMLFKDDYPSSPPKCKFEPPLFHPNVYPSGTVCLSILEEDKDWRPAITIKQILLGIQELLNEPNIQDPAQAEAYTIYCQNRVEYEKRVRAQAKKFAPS

[5] = target: T5, JUN-U (Homo sapiens, UniProt P05412+P63279); assay: Trans-SUMOylation by JUN-U; format: cell-based; conditions: protein 2 construct coexpressed with JUN-U and EGFP-SUMO1 in HEK293, western blot
T5 construct: expressed in transfected cells; host or cells: HEK293
T5 sequence (P05412+P63279 fused): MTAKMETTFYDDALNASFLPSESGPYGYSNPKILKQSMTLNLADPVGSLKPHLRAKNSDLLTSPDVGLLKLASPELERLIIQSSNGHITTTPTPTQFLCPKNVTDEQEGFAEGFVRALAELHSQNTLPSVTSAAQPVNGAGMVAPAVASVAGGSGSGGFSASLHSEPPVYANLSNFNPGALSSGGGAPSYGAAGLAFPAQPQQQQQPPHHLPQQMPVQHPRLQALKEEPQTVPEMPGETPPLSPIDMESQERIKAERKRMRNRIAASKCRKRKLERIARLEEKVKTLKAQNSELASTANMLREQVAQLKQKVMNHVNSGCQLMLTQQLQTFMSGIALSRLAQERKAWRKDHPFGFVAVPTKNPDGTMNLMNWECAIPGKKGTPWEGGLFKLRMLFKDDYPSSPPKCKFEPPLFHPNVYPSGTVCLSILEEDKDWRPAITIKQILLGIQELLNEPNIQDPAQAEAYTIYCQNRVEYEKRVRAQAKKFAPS

[6] = target: T6, U-p38α (Homo sapiens, UniProt P63279+Q16539); assay: Trans-SUMOylation by U-p38α; format: cell-based; conditions: protein 2 construct coexpressed with U-p38α and EGFP-SUMO1 in HEK293; western blot; Table 2
T6 construct: expressed in transfected cells; host or cells: HEK293
T6 sequence (P63279+Q16539 fused): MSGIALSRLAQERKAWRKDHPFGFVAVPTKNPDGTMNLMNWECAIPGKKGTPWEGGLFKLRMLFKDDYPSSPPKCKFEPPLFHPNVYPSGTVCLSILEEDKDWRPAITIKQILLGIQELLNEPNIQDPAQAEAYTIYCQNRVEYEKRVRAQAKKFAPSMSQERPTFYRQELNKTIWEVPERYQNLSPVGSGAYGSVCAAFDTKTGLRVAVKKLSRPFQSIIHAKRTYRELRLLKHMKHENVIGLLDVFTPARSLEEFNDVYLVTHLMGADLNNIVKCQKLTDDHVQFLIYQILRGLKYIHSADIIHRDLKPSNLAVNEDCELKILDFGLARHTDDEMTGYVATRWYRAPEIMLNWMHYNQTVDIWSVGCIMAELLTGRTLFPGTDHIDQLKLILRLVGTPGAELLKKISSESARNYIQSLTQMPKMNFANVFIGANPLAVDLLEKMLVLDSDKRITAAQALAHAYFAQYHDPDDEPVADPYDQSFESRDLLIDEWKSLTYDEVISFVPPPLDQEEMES

[7] = target: T7, U-MK2 (Homo sapiens, UniProt P49137+P63279); assay: Trans-SUMOylation by U-MK2; format: cell-based; conditions: protein 2 construct coexpressed with U-MK2 and EGFP-SUMO1 in HEK293; western blot; Table 2
T7 construct: expressed in transfected cells; host or cells: HEK293
T7 sequence (P63279+P49137 fused): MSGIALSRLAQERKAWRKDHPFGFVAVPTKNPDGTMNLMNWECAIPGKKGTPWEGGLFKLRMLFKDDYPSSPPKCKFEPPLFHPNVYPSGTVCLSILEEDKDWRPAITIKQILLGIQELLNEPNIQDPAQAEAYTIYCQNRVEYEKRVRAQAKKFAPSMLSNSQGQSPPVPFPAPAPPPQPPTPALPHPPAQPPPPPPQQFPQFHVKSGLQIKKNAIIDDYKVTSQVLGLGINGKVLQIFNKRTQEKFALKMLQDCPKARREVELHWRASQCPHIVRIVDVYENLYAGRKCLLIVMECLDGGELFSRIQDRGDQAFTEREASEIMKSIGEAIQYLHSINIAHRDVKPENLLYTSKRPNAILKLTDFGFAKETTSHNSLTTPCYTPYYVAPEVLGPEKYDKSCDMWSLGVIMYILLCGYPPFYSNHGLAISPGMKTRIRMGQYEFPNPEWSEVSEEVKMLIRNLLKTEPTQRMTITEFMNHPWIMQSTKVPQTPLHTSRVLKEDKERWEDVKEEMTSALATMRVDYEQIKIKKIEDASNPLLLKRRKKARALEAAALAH

[8] = system: STAT1; assay: Interplay of STAT1 Y701 phosphorylation and K703 SUMOylation by USDDS, western blot; format: cell-based, human; conditions: HEK293, USDDS with AP21967 1 μM and interferon-β, any stimulation scenario
[9] = target: T8, Ubc9-FKBP (Homo sapiens, UniProt P42345+P63279); assay: USDDS specificity for SUMOylation sites (K-to-R mutants), western blot; format: cell-based; conditions: HEK293, coexpressed with Ubc9-FKBP and EGFP-SUMO1, stimulated with AP21967 1 μM
T8 construct: expressed in transfected cells; host or cells: HEK293
T8 sequence (P63279 with tags, fused parts or gaps): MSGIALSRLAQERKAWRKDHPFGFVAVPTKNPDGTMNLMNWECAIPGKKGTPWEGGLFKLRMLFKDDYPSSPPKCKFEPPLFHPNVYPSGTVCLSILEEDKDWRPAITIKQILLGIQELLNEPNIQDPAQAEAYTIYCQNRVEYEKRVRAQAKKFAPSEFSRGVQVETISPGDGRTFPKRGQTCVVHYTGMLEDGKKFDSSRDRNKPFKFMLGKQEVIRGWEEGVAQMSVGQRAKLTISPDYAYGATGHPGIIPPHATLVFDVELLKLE
T8 sequence (P42345 2021-2113 limits assumed): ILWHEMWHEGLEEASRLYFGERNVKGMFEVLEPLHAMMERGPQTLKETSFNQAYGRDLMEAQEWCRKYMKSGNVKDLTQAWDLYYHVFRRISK

[10] = protein 2 construct coexpressed with p53-U and EGFP-SUMO1 in HEK293, Table 2

- Trans-SUMOylation [1, 10]: −
- Trans-SUMOylation [2]: +
B1: GST-CDK4: CDK4 fused to GST tag (protein, UniProt P11802 2-303, looked up)
Cyclin-dependent kinase 4: ATSRYEPVAEIGVGAYGTVYKARDPHSGHFVALKSVRVPNGGGGGGGLPISTVREVALLRRLEAFEHPNVVRLMDVCATSRTDREIKVTLVFEHVDQDLRTYLDKAPPPGLPAETIKDLMRQFLRGLDFLHANCIVHRDLKPENILVTSGGTVKLADFGLARIYSYQMALTPVVVTLWYRAPEVLLQSTYATPVDMWSVGCIFAEMFRRKPLFCGNSEADQLGKIFDLIGLPPEDDWPRDVSLPRGAFPPRGPRPVQSVVPEMEESGAQLLLEMLTFNPHKRISAFRALQHSYLHKDEGNPE
modifications: GST tag

- Trans-SUMOylation [1, 10]: −
- Trans-SUMOylation [3]: −
- Trans-SUMOylation [4]: −
- Trans-SUMOylation ([5]; Table 2): −
- Trans-SUMOylation [6]: −
- Trans-SUMOylation [7]: −
B2: GST-DRG1: DRG1 fused to GST tag (protein)
chain: MSSTLAKIAEIEAEMARTQKNKATAHHLGLLKARLAKLRRELITPKGGGGGGPGEGFDVAKTGDARIGFVGFPSVGKSTLLSNLAGVYSEVAAYEFTTLTTVPGVIRYKGAKIQLLDLPGIIEGAKDGKGRGRQVIAVARTCNLILIVLDVLKPLGHKKIIENELEGFGIRLNSKPPNIGFKKKDKGGINLTATCPQSELDAETVKSILAEYKIHNADVTLRSDATADDLIDVVEGNRVYIPCIYVLNKIDQISIEELDIIYKVPHCVPISAHHRWNFDDLLEKIWDYLKLVRIYTKPKGQLPDYTSPVVLPYSRTTVEDFCMKIHKNLIKEFKYALVWGLSVKHNPQKVGKDHTLEDEDVIQIVKK
modifications: left off: a dimerising Fc or GST
notes: DRG1 fused to GST tag

B3: STAT1-FRB: human STAT1a fused to FRB (T2098L) heterodimerisation domain (protein)
chain: MSQWYELQQLDSKFLEQVHQLYDDSFPMEIRQYLAQWLEKQDWEHAANDVSFATIRFHDLLSQLDDQYSRFSLENNFLLQHNIRKSKRNLQDNFQEDPIQMSMIIYSCLKEERKILENAQRFNQAQSGNIQSTVMLDKQKELDSKVRNVKDKVMCIEHEIKSLEDLQDEYDFKCKTLQNREHETNGVAKSDQKQEQLLLKKMYLMLDNKRKEVVHKIIELLNVTELTQNALINDELVEWKRRQQSACIGGPPNACLDQLQNWFTIVAESLQQVRQQLKKLEELEQKYTYEHDPITKNKQVLWDRTFSLFQQLIQSSFVVERQPCMPTHPQRPLVLKTGVQFTVKLRLLVKLQELNYNLKVKVLFDKDVNERNTVKGFRKFNILGTHTKVMNMEESTNGSLAAEFRHLQLKEQKNAGTRTNEGPLIVTEELHSLSFETQLCQPGLVIDLETTSLPVVVISNVSQLPSGWASILWYNMLVAEPRNLSFFLTPPCARWAQLSEVLSWQFSSVTKRGLNVDQLNMLGEKLLGPNASPDGLIPWTRFCKENINDKNFPFWLWIESILELIKKHLLPLWNDGCIMGFISKERERALLKDQQPGTFLLRFSESSREGAITFTWVERSQNGGEPDFHAVEPYTKKELSAVTFPDIIRNYKVMAAENIPENPLKYLYPNIDKDHAFGKYYSRPKEAPEPMELDGPKGTGYIKTELISVSEVHPSRLQTTDNLLPMSPEEFDEVSRIVGSVEFILWHEMWHEGLEEASRLYFGERNVKGMFEVLEPLHAMMERGPQTLKETSFNQAYGRDLMEAQEWCRKYMKSGNVKDLLQAWDLYYHVFRRISK
- double modification of STAT1 by SUMOylation and Y701 phosphorylation [8]: no double modification

- Trans-SUMOylation ([1]; protein 2 construct coexpressed with P53-U (p53-U) and EGFP-SUMO1 in HEK293, Table 1): −
- Trans-SUMOylation ([5]; Table 1): −
B4: HA-JNK1: JNK1 fused to HA tag (protein)
chain: MSRSKRDNNFYSVEIGDSTFTVLKRYQNLKPIGSGAQGIVCAAYDAILERNVAIKKLSRPFQNQTHAKRAYRELVLMKCVNHKNIIGLLNVFTPQKSLEEFQDVYIVMELMDANLCQVIQMELDHERMSYLLYQMLCGIKHLHSAGIIHRDLKPSNIVVKSDCTLKILDFGLARTAGTSFMMTPYVVTRYYRAPEVILGMGYKENVDLWSVGCIMGEMVCHKILFPGRDYIDQWNKVIEQLGTPCPEFMKKLQPTVRTYVENRPKYAGYSFEKLFPDVLFPADSEHNKLKASQARDLLSKMLVIDASKRISVDEALQHPYINVWYDPSEAEAPPPKIPDKQLDEREHTIEEWKELIYKEVMDLEERTKNGVIRGQPSPLAQVQQ
modifications: left off: small tags and cut ends
notes: JNK1 fused to HA tag

- SUMOylation of mutant fusion protein [9]: nearly no SUMOylation
B5: STAT1K703R-FRB: STAT1 SUMOylation site mutant K703R fused to FRB (protein, UniProt P42224 2-750, looked up, variant K703R)
Signal transducer and …: SQWYELQQLDSKFLEQVHQLYDDSFPMEIRQYLAQWLEKQDWEHAANDVSFATIRFHDLLSQLDDQYSRFSLENNFLLQHNIRKSKRNLQDNFQEDPIQMSMIIYSCLKEERKILENAQRFNQAQSGNIQSTVMLDKQKELDSKVRNVKDKVMCIEHEIKSLEDLQDEYDFKCKTLQNREHETNGVAKSDQKQEQLLLKKMYLMLDNKRKEVVHKIIELLNVTELTQNALINDELVEWKRRQQSACIGGPPNACLDQLQNWFTIVAESLQQVRQQLKKLEELEQKYTYEHDPITKNKQVLWDRTFSLFQQLIQSSFVVERQPCMPTHPQRPLVLKTGVQFTVKLRLLVKLQELNYNLKVKVLFDKDVNERNTVKGFRKFNILGTHTKVMNMEESTNGSLAAEFRHLQLKEQKNAGTRTNEGPLIVTEELHSLSFETQLCQPGLVIDLETTSLPVVVISNVSQLPSGWASILWYNMLVAEPRNLSFFLTPPCARWAQLSEVLSWQFSSVTKRGLNVDQLNMLGEKLLGPNASPDGLIPWTRFCKENINDKNFPFWLWIESILELIKKHLLPLWNDGCIMGFISKERERALLKDQQPGTFLLRFSESSREGAITFTWVERSQNGGEPDFHAVEPYTKKELSAVTFPDIIRNYKVMAAENIPENPLKYLYPNIDKDHAFGKYYSRPKEAPEPMELDGPKGTGYIRTELISVSEVHPSRLQTTDNLLPMSPEEFDEVSRIVGSVEFDSMMNTV
modifications: fused to FRB domain
